The text below walks through data of the supplement of paper PMC10724198.

± gives the standard deviation of the averaged measurements.
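Note: PSI is a weighted mean of sequencing reads over stability bins, variants kept only with over 10 reads, mCherry proximal and sfGFP distal, peptide attached via GGGS linker.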

This data set has as its system Saccharomyces cerevisiae. The data set can be described thus: protein stability index of tFT-peptide fusion (C-terminal peptide) (PSI (0-1 scale)); higher = more stable (slower turnover). The following applies: genetic background: wild type; temperature: 30 C.
Take LIHCVSTFRCGE: the protein stability index amounted to 0.622 ± 0.026.

LIIMPTFDISAP came in with a protein stability index of 0.7273 ± 0.0059.

For the sequence LILEKHEMIGRR, the protein stability index amounted to 0.681 ± 0.026.

For LIPLSLPSCPLS, the protein stability index was 0.69 ± 0.085.

LITCHSHKPQQI had a protein stability index of 0.704 ± 0.098.

In turn, LKRKRKYKKQGV showed a protein stability index of 0.786 ± 0.01.

Sequence LKRRREGEPGKQ displayed a protein stability index of 0.625 ± 0.053.

Sequence LKRSYKKQRDNV showed a protein stability index of 0.698 ± 0.14.

For the sequence LLAFSPFLPLPP, the protein stability index worked out at 0.667 ± 0.046.

LLANLRSSIDIQ: the protein stability index is 0.709 ± 0.18.

Turning to LLCGVLGLAWVW, the protein stability index is 0.553 ± 0.029.

The sequence LLCRGLGSVGRR came in with a protein stability index of 0.63 ± 0.18.

On to LLDLVVTAMCVL, for which the protein stability index is 0.587 ± 0.032.

For the sequence LLESFCVSWCSW, the protein stability index was determined as 0.617 ± 0.012.

The sequence LLFDIYSPTCPS showed a protein stability index of 0.628 ± 0.02.

LLFLPRPPVCSR had a protein stability index of 0.649 ± 0.11.

In turn, LLGRRSHTPDEP displayed a protein stability index of 0.723 ± 0.013.

Sequence LLHPFPPLCRHP yielded a protein stability index of 0.716 ± 0.018.

LLHPSPTPPCPP showed a protein stability index of 0.696 ± 0.06.

In turn, LLLLFLCSPSSL came in with a protein stability index of 0.496 ± 0.041.

For the sequence LLLLRPPLGASF, the protein stability index was determined as 0.711 ± 0.016.

Turning to LLLPPPLSASSS, the protein stability index came to 0.633 ± 0.028.

The sequence LLLRGSGRSLAL yielded a protein stability index of 0.709 ± 0.0082.

Consider LLLRLAASSSLS, for which the protein stability index amounted to 0.703 ± 0.027.

For the sequence LLLSQSSFCLTC, the protein stability index was 0.637 ± 0.046.

For LLNAGAMKGRLG, the protein stability index was 0.6782 ± 0.0038.

LLNNNLNQRIYQ: the protein stability index worked out at 0.729 ± 0.019.

Take LLPALPPRCISF: the protein stability index is 0.7343 ± 0.005.

In turn, LLPLLPPAPPSP displayed a protein stability index of 0.687 ± 0.024.

Take LLPPAPLPPSLG: the protein stability index was 0.722 ± 0.016.

LLPPFPPPSLFS came in with a protein stability index of 0.667 ± 0.01.

As for LLPPPPPPPFSD, the protein stability index turned out to be 0.653 ± 0.079.

For LLPPPPPPPSTP, the protein stability index was 0.772 ± 0.0067.

With LLPPSPFTPPPF, the protein stability index was 0.742 ± 0.076.

The sequence LLPVFSYVPTFH came in with a protein stability index of 0.648 ± 0.047.

LLQFRATFPTTV came in with a protein stability index of 0.721 ± 0.036.

LLRFRSFPSAFF yielded a protein stability index of 0.723 ± 0.084.

In turn, LLRFSFLHFLFY returned a protein stability index of 0.6116 ± 0.003.

Sequence LLRSSASISLKK returned a protein stability index of 0.738 ± 0.059.

In turn, LLRVMRAVFSGL had a protein stability index of 0.623 ± 0.015.

For LLSIGTSTLFLL, the protein stability index amounted to 0.636 ± 0.017.

Regarding LLSLVSDFLFGL, the protein stability index was 0.698 ± 0.042.

Regarding LLSPHPSCRPTP, the protein stability index worked out at 0.584 ± 0.037.

For LLSPSPPLLPPL, the protein stability index was found to be 0.763 ± 0.036.

LLYAFSSFLRAP registered a protein stability index of 0.647 ± 0.046.

In turn, LLYSTRRCIFEF displayed a protein stability index of 0.645 ± 0.034.

For the sequence LNIVVTQNKNKK, the protein stability index was 0.73 ± 0.035.

Consider LNPPYLAPPPPF, for which the protein stability index was found to be 0.739 ± 0.045.

LPAPAGPEPPRT gave a protein stability index of 0.6747 ± 0.00069.

With LPAPPPLPPPHP, the protein stability index came to 0.712 ± 0.065.

In the case of LPAPPPPPRPLA, the protein stability index amounted to 0.683 ± 0.021.

LPASAPFPLSPP: the protein stability index is 0.7 ± 0.035.

Sequence LPDAPCLCSGLL had a protein stability index of 0.714 ± 0.013.

LPFTLLPPVLSL had a protein stability index of 0.596 ± 0.0062.

As to LPGFPPSLLPRL, the protein stability index came out at 0.777 ± 0.059.

With LPGGVGCVGSPV, the protein stability index came to 0.721 ± 0.037.

Take LPGLSRATTVYP: the protein stability index came to 0.679 ± 0.065.

Take LPGPICSPPTGS: the protein stability index came to 0.693 ± 0.011.

In turn, LPGSLISPSSPP yielded a protein stability index of 0.721 ± 0.021.

Take LPHLDPPPLPPP: the protein stability index is 0.6386 ± 0.0052.

LPHSNWAGRVIE had a protein stability index of 0.703 ± 0.025.

Consider LPHTVITVPDPQ, for which the protein stability index was found to be 0.628 ± 0.065.

Turning to LPLHRFHPPPPY, the protein stability index is 0.715 ± 0.041.

The sequence LPLPHALGSWSY returned a protein stability index of 0.7278 ± 0.0061.

As for LPLPPPPAPPPL, the protein stability index worked out at 0.7015 ± 0.0012.

As to LPLPVPSLPSAP, the protein stability index came to 0.728 ± 0.019.

In the case of LPLSFPTLPPPP, the protein stability index came to 0.66 ± 0.055.

Turning to LPLSPRCFSLLG, the protein stability index worked out at 0.6774 ± 0.0023.

LPLSTLGPLARL returned a protein stability index of 0.725 ± 0.18.

For LPLVLSPSPPHP, the protein stability index came out at 0.711 ± 0.061.

For LPLVSLLCLLPR, the protein stability index was 0.668 ± 0.038.

As to LPLYPFGLLLPL, the protein stability index came out at 0.686 ± 0.043.

LPPAAPPPPIPA yielded a protein stability index of 0.599 ± 0.0079.

In the case of LPPASSPPLLTP, the protein stability index is 0.696 ± 0.083.

LPPAVIVCVLPS gave a protein stability index of 0.586 ± 0.0097.

In turn, LPPGSTPDSPTL showed a protein stability index of 0.706 ± 0.028.

Consider LPPHSPALRLPR, for which the protein stability index was determined as 0.708 ± 0.0097.

In turn, LPPIAFPPSFSP yielded a protein stability index of 0.69983 ± 0.00059.

LPPLGAPQPPPP showed a protein stability index of 0.731 ± 0.021.

LPPLPLPPATTP displayed a protein stability index of 0.715 ± 0.04.
